# Results from patent publication US20250154240A1, “ANTI-HUMAN CXCL1 ANTIBODY” (CHIOME BIOSCIENCE INC., priority 2022, published 2025).
# T1: human CXCL5 (Homo sapiens, UniProt P42830)
# T1 sequence (P42830 37-114): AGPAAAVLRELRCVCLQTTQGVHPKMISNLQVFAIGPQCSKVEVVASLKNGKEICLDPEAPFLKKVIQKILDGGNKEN
# T2: HuCXCL3 (Homo sapiens, UniProt P19876)
# T2 construct: purchased PROTEINTECH
# T2 sequence (P19876 35-107): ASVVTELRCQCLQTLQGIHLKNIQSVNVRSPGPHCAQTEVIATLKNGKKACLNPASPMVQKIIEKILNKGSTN
# Tests used:
# human CXCL5 = target: T1, human CXCL5; assay: Binding to human CXCL5
# [1] = system: OCUM-2MLN gastric cancer cell line; assay: Efficacy evaluation in a model with OCUM-2MLN orthotopic transplantation; type: in vivo, mouse; details: 20 mg/kg intraperitoneally twice a week, 3 weeks, compared to PBS control
# Experimental: Among the candidate antibodies, 3 types of antibodies (4A-2F7, 5A-5E11 and 028-8-12) were evaluated for their in vivo antitumor activity in a xenograft model with OCUM-2MLN orthotopic transplantation. Procedures for the evaluation are shown below.
# For use as mice, female nude mice (BALB/cAJcl-nu/nu) at 5 to 6 weeks of age were purchased from Charles River Japan, Inc. As human cancer cells, a gastric cancer cell line, OCUM-2MLN, was used.
# OCUM-2MLN cells were cultured in D-MEM medium (FUJIFILM Wako Pure Chemical Corporation, Japan) supplemented with 10% fetal bovine serum (FBS; NICHIREI BIOSCIENCE), 1/100 volumes of a penicillin-streptomycin mixture (FUJIFILM Wako Pure Chemical Corporation, Japan) and 1/100 volumes of a sodium pyruvate solution (SIGMA-ALDRICH). The cells to be transplanted were detached with a 0.05 w/v % trypsin/0.53 mmol/L EDTA 4Na solution (FUJIFILM Wako Pure Chemical Corporation, Japan) and washed with PBS, and 1× 10^6 cells per mouse were transplanted into the gastric wall of each mouse. […] After 3 weeks had passed from the transplantation, the mice were sacrificed, and the short- and long-axis diameters of tumors formed in their gastric walls were each measured with a caliper. The tumor size was calculated according to the following: short-axis diameter (mm)×long-axis diameter (mm).
# CXCR2-expressing cells = assay: In vivo CXCR2-expressing cell migration inhibitory activity, treatment model with OCUM-12 orthotopic transplantation; design: species or system mouse
# Excerpt: The stomachs after measurement were excised and fixed overnight at room temperature with a 10% neutral buffered formalin solution (Wako Pure Chemical Industries, Ltd., Japan), followed by replacement with PBS. Then, paraffin embedding and section preparation were outsourced to Applied Medical Research Laboratory, Japan. The prepared gastric tumor sections were immunohistologically stained with an anti-CXCR2 antibody to evaluate in vivo CXCR2 cell migration inhibitory activity. The sections were deparaffinized and rehydrated, and then treated to inactivate endogenous peroxidase. After antigen activation treatment, the sections were blocked with PBS containing 2% skimmed milk and 0.1% Tween-20 (hereinafter referred to as the blocking solution), and reacted overnight at 4° C. with an anti-CXCR2 antibody (Biorbyt) as a primary antibody, which had been diluted 1667-fold with the blocking solution. After washing with PBS containing 0.1% Tween-20, the sections were reacted at room temperature for 1 hour with an HRP-labeled goat anti-rabbit IgG antibody (Abcam) as a secondary antibody. […]
# The dose-response relationship between antibody dose and in vivo antitumor activity or CXCR2 migration inhibitory activity was evaluated in a xenograft treatment model with OCUM-12 orthotopic transplantation. […] After 4 weeks had passed from the transplantation, the mice were sacrificed and evaluated.
# HuCXCL3 = target: T2, HuCXCL3; assay: ELISA, inhibition of binding of HuCXCL3 to GAG (heparin, heparan sulfate); type: biochemical; details: antibody 0 to 10 μg/mL; biotin-labeled heparin or heparan sulfate 10 μg/mL
# Experimental: Thus, the effect of Hu5A-5E11 on the binding of CXCLs to GAG was evaluated by ELISA assay using plates on which the antigen (HuCXCL1 protein) used for immunization or HuCXCL2, 3 and 5 and MsCXCL1 and 2 proteins had been directly immobilized. CXCLs other than HuCXCL1 were purchased from PROTEINTECH and used. Biotin-labeled heparan sulfate and heparin were purchased from PG Research and used.
# To 96-well plates, phosphate-buffered saline (PBS) containing 3 μg/mL of HuCXCL1, 2, 3 or 5 or MsCXCL1 or 10 μg/mL of MsCXCL2 was added in a volume of 50 μL per well, and the plates were allowed to stand overnight at 4° C. After removal of the antigen solutions, PBS containing 0.05% Tween-20 (hereinafter referred to as the blocking solution) was added to each well for blocking reaction, and the plates were allowed to stand at room temperature for 30 minutes. […] TMB (Dako) was added as a chromogenic substrate solution to cause color development, and 1 N sulfuric acid was added to stop the reaction, followed by measurement of absorbance at 450 nm. The binding rate of CXCLs to GAG was calculated as a ratio relative to the absorbance measured in the absence of the antibody, which was set to 100%.
Molecule,Binding to human CXCL5 (human CXCL5),"Antitumor activity (tumor growth, tumor size) [1]",Dose at which the migration suppressive effect tended to reach a plateau (CXCR2-expressing cells) [μg/head],Inhibitory activity against the binding of HuCXCL3 to GAG (HuCXCL3)
"4A-2F7: mouse monoclonal anti-HuCXCL1 antibody clone; VH SEQ ID NO: 9, VL SEQ ID NO: 13 (antibody, listed as Mus musculus, V domains shown) VH: QVTLKESGPGILKPSQTLSLTCSFSGFSLSTSGMGVDWIRQPSGKGLEWLAHIWWDDDKYYNPSLKSQLTISKDTSRNQVFLKITSVDTADTATYYCARSYGYDMDYYAMDYWGQGTSVTVSS VL: DIQMTQSPSSLSASLGERVSLTCRASQEISGYLSWLQQKPDGTIKRLIYAASTLDSGVPKRFSGSRSGSDYSLTISSLESEDFADYYCLQYASYPPWTFGGGTKLEIK",also bind,significantly suppress tumor growth,,
"Hu5A-5E11: humanized antibody VH1/VL1; VH SEQ ID NO: 76, VL SEQ ID NO: 78 (antibody, V domains shown) VH: QVQLVQSGAEVKKPGSSVKVSCKASGYAFSDYWMNWVRQAPGQGLEWIGQIYPGSGDTNYNAKFKGKGTITADKSTSTAYMELSSLRSEDTAVYYCARERDYDVAMDYWGQGTTVTVSS VL: DIQMTQSPSSLSASVGDRVTITCKASQDINKYIAWFQQKPGKAPKLVIHYTSILQPGVPSRFSGSGSGTDYTFTISSLQPEDIATYYCLQYDNLPWTFGGGTKVEIK",,,≥ 60,"inhibit the binding of HuCXCL1, 2, 3 and 5 and MsCXCL1 to GAG in an antibody concentration-dependent manner"
"5A-5E11: mouse monoclonal anti-HuCXCL1 antibody clone; VH SEQ ID NO: 17, VL SEQ ID NO: 21 (antibody, listed as Mus musculus, V domains shown) VH: QVQLQQSGAELVRPGSSVKISCKASGYAFSDYWMNWVKQRPGQGLEWIGQIYPGDGDTNYNGKFKGKGTLTADKSSSTAYMQLNSLTSEDSAVYFCARERDYDVAMDYWGQGTSVTVSS VL: DIQMTQSPSSLSASLGGKVTITCKASQDINKYIAWFQHKPGKGPRLVIHYTSILQPGIPSRFSGVGSGRDYSFSIRNLEPEDIATYYCLQYDNLPWTFGGGTKLEIK",also bind,significantly suppress tumor growth,,
